Data: the supplement of paper PMC9876800

tested on: peptide library, one residue held at a place counted from the S/T acceptor; assay: relative phosphorylation of the sub-library (ratio to the mean residue at this position); human; higher = residue favoured; settings: F fixed; at -2
Procedure, shortened: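 Relative sub-library phosphorylation is the ratio of each sub-library's signal to the mean residue at that position. The signal came from phosphorimaging of spots on streptavidin membranes, quantified by densitometry, after purified recombinant kinases reacted with biotinylated degenerate peptide sub-libraries in 384-well plates. Reactions held 50 μM peptide and 50 μM ATP spiked with γ-32P-ATP for 90 min under kinase-specific conditions.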

Chain of GRK5, construct: Full length (P34947 whole entry, looked up): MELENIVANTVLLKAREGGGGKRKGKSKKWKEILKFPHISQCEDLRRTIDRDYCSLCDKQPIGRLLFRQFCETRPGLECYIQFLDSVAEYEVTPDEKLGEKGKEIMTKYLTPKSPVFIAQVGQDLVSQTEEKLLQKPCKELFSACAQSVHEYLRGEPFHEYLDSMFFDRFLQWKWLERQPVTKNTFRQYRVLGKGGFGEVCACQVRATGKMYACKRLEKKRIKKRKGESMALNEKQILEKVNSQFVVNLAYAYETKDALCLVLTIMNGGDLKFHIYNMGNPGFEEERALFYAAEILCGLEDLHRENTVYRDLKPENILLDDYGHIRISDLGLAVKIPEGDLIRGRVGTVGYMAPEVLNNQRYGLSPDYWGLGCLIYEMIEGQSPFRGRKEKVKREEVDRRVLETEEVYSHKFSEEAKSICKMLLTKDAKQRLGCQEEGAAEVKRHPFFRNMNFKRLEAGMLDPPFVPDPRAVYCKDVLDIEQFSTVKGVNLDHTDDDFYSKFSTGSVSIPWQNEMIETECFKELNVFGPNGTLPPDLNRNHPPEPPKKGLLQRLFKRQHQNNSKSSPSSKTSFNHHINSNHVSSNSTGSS
Chain of PAK3, construct: Full length (O75914 whole entry, looked up): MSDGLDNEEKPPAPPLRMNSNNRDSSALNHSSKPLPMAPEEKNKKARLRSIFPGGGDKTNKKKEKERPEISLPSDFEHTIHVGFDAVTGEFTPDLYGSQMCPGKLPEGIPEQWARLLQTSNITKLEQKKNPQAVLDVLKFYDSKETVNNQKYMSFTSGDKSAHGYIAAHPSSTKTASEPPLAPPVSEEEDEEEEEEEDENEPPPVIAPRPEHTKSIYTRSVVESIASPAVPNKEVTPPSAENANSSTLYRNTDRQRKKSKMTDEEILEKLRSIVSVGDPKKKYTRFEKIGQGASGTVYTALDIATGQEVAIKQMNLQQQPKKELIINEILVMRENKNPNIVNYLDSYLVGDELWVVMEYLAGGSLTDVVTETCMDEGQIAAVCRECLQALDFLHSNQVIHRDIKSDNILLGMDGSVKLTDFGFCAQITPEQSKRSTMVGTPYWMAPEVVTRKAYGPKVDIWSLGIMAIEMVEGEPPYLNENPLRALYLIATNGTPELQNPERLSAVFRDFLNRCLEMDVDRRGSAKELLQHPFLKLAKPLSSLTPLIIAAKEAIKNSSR
Chain of MASTL, construct: Full length (Q96GX5 whole entry, looked up): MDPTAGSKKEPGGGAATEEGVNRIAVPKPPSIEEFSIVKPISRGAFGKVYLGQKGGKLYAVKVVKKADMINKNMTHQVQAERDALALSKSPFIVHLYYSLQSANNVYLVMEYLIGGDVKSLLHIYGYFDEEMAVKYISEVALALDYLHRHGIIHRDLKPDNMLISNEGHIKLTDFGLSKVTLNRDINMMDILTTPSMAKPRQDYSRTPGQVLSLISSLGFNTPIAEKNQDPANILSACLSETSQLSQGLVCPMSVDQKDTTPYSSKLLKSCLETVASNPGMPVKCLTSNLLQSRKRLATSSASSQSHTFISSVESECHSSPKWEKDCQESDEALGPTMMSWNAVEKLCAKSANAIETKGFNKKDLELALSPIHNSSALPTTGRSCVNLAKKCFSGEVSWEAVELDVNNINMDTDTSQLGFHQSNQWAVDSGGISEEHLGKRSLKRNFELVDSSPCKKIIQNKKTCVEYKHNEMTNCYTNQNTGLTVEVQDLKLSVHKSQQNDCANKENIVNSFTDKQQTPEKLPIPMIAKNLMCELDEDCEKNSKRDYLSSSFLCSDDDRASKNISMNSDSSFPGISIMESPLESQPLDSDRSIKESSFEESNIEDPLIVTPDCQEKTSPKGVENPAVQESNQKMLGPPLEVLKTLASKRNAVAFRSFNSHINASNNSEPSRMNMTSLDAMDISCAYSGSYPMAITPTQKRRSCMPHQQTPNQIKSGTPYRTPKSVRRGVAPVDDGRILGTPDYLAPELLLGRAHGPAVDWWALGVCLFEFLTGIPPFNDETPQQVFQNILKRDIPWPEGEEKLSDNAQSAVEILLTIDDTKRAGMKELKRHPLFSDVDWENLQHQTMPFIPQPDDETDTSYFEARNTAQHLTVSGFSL
Chain of PRPF4B, construct: aa519-end (Q13523 519-1007, looked up): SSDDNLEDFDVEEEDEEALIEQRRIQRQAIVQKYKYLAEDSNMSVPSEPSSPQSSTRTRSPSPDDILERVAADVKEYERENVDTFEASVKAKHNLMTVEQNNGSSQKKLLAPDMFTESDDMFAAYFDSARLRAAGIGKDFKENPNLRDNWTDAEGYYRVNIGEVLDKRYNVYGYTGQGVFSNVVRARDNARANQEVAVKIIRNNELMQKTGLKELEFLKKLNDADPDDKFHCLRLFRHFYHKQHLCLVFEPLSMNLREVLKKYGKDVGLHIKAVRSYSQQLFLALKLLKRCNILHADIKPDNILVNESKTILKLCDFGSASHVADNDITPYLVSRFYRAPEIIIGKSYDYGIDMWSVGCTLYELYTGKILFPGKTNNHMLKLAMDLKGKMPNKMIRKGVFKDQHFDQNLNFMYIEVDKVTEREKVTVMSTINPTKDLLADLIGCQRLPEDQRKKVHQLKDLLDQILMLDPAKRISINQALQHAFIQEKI
Chain of RPS6KA6, construct: Full length (Q9UK32 whole entry, looked up): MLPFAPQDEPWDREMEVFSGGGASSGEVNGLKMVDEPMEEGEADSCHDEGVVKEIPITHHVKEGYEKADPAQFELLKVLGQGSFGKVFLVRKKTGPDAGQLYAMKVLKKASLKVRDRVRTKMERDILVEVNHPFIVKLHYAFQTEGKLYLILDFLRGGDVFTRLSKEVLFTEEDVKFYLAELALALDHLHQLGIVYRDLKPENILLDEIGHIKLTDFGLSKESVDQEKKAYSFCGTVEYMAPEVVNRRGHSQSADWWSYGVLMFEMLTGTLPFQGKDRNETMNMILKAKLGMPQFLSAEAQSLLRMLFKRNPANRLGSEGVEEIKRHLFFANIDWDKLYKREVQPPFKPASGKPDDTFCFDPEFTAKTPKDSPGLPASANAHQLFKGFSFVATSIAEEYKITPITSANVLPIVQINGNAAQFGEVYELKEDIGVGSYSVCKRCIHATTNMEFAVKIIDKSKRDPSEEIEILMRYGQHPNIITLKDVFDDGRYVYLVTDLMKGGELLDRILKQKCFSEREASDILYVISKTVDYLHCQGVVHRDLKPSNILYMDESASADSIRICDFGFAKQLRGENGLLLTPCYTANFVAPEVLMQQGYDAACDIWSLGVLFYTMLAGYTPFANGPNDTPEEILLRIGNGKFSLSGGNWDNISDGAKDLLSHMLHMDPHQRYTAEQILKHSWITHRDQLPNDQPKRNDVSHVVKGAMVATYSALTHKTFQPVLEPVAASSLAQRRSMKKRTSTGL
Chain of CLK3, construct: Full length (P49761 whole entry, looked up): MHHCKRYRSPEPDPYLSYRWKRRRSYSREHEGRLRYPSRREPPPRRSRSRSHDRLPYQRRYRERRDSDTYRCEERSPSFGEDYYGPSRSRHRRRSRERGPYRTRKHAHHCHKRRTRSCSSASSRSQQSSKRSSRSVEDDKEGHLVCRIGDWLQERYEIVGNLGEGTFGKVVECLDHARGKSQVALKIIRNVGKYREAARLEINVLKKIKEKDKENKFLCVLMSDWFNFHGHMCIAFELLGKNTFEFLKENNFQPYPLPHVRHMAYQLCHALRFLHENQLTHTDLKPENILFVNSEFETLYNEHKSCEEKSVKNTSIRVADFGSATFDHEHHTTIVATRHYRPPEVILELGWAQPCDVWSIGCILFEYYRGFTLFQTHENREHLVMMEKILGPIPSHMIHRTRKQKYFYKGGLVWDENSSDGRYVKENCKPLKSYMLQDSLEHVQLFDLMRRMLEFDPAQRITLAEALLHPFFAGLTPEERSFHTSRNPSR
Chain of TTK, construct: Full length (P33981 whole entry, looked up): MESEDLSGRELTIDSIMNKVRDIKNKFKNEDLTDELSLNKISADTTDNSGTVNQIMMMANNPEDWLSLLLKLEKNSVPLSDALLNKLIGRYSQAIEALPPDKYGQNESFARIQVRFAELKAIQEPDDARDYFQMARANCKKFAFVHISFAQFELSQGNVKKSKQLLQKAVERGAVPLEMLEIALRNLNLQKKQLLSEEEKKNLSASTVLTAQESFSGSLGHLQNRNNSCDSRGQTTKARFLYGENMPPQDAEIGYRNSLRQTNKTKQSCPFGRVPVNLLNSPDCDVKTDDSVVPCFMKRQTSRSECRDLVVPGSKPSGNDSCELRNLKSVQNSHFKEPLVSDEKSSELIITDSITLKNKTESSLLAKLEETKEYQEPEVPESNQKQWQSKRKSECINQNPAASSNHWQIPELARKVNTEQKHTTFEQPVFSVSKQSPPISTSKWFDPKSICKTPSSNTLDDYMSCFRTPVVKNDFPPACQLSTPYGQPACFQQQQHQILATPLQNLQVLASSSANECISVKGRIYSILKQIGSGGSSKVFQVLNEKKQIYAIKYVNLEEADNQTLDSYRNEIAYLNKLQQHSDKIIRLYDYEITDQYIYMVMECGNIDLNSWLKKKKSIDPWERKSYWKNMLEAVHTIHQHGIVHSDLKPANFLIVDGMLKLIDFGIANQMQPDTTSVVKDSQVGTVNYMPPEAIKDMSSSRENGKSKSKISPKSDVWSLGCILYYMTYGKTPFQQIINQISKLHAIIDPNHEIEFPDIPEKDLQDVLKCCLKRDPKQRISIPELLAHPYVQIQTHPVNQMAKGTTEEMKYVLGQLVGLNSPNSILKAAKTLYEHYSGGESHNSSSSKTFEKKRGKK
Chain of MELK, construct: aa1-340 (Q14680 1-340, looked up): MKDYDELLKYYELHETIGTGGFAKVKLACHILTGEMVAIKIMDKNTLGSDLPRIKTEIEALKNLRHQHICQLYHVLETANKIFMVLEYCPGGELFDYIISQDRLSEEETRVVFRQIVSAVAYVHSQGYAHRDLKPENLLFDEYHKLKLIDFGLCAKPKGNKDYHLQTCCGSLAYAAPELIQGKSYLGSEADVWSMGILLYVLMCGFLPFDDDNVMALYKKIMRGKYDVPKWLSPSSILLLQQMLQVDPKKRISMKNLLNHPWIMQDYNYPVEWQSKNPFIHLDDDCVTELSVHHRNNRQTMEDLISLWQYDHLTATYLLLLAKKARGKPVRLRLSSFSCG

| Substance | relative phosphorylation |
| --- | --- |
| PAK3, construct: Full length (from UniProt O75914) | 0.471 |
| MASTL, construct: Full length (from UniProt Q96GX5) | 1.74 |
| MELK, construct: aa1-340 (from UniProt Q14680) | 1.07 |
| CLK3, construct: Full length (from UniProt P49761) | 0.342 |
| RPS6KA6, construct: Full length (from UniProt Q9UK32) | 0.463 |
| GRK5, construct: Full length (from UniProt P34947) | 1.67 |
| TTK, construct: Full length (from UniProt P33981) | 0.373 |
| PRPF4B, construct: aa519-end (from UniProt Q13523) | 1.27 |

same assay, conditions: F fixed; at -3

| Substance | relative phosphorylation |
| --- | --- |
| PAK3, construct: Full length (from UniProt O75914) | 0.59 |
| MASTL, construct: Full length (from UniProt Q96GX5) | 1.13 |
| MELK, construct: aa1-340 (from UniProt Q14680) | 0.478 |
| CLK3, construct: Full length (from UniProt P49761) | 0.339 |
| RPS6KA6, construct: Full length (from UniProt Q9UK32) | 0.251 |
| GRK5, construct: Full length (from UniProt P34947) | 0.85 |
| TTK, construct: Full length (from UniProt P33981) | 0.55 |
| PRPF4B, construct: aa519-end (from UniProt Q13523) | 0.409 |

same assay, conditions: F fixed; at -4

| Substance | relative phosphorylation |
| --- | --- |
| PAK3, construct: Full length (from UniProt O75914) | 0.732 |
| MASTL, construct: Full length (from UniProt Q96GX5) | 1.02 |
| MELK, construct: aa1-340 (from UniProt Q14680) | 0.674 |
| CLK3, construct: Full length (from UniProt P49761) | 0.516 |
| RPS6KA6, construct: Full length (from UniProt Q9UK32) | 0.582 |
| GRK5, construct: Full length (from UniProt P34947) | 0.912 |
| TTK, construct: Full length (from UniProt P33981) | 0.76 |
| PRPF4B, construct: aa519-end (from UniProt Q13523) | 0.856 |

same assay, conditions: F fixed; at -5

| Substance | relative phosphorylation |
| --- | --- |
| PAK3, construct: Full length (from UniProt O75914) | 0.876 |
| MASTL, construct: Full length (from UniProt Q96GX5) | 1 |
| MELK, construct: aa1-340 (from UniProt Q14680) | 1.18 |
| CLK3, construct: Full length (from UniProt P49761) | 0.773 |
| RPS6KA6, construct: Full length (from UniProt Q9UK32) | 0.7 |
| GRK5, construct: Full length (from UniProt P34947) | 0.967 |
| TTK, construct: Full length (from UniProt P33981) | 0.791 |
| PRPF4B, construct: aa519-end (from UniProt Q13523) | 0.905 |

same assay, conditions: G fixed; at +1

| Substance | relative phosphorylation |
| --- | --- |
| PAK3, construct: Full length (from UniProt O75914) | 0.706 |
| MASTL, construct: Full length (from UniProt Q96GX5) | 1.59 |
| MELK, construct: aa1-340 (from UniProt Q14680) | 0.949 |
| CLK3, construct: Full length (from UniProt P49761) | 0.984 |
| RPS6KA6, construct: Full length (from UniProt Q9UK32) | 0.574 |
| GRK5, construct: Full length (from UniProt P34947) | 0.768 |
| TTK, construct: Full length (from UniProt P33981) | 1.18 |
| PRPF4B, construct: aa519-end (from UniProt Q13523) | 0.774 |

same assay, conditions: G fixed; at +2

| Substance | relative phosphorylation |
| --- | --- |
| PAK3, construct: Full length (from UniProt O75914) | 0.615 |
| MASTL, construct: Full length (from UniProt Q96GX5) | 0.711 |
| MELK, construct: aa1-340 (from UniProt Q14680) | 0.79 |
| CLK3, construct: Full length (from UniProt P49761) | 0.987 |
| RPS6KA6, construct: Full length (from UniProt Q9UK32) | 0.967 |
| GRK5, construct: Full length (from UniProt P34947) | 1.06 |
| TTK, construct: Full length (from UniProt P33981) | 0.501 |
| PRPF4B, construct: aa519-end (from UniProt Q13523) | 0.741 |

same assay, conditions: G fixed; at +3

| Substance | relative phosphorylation |
| --- | --- |
| PAK3, construct: Full length (from UniProt O75914) | 0.97 |
| MASTL, construct: Full length (from UniProt Q96GX5) | 1.14 |
| MELK, construct: aa1-340 (from UniProt Q14680) | 0.855 |
| CLK3, construct: Full length (from UniProt P49761) | 0.917 |
| RPS6KA6, construct: Full length (from UniProt Q9UK32) | 1.23 |
| GRK5, construct: Full length (from UniProt P34947) | 0.998 |
| TTK, construct: Full length (from UniProt P33981) | 0.552 |
| PRPF4B, construct: aa519-end (from UniProt Q13523) | 1.05 |

same assay, conditions: G fixed; at +4

| Substance | relative phosphorylation |
| --- | --- |
| PAK3, construct: Full length (from UniProt O75914) | 1.13 |
| MASTL, construct: Full length (from UniProt Q96GX5) | 0.867 |
| MELK, construct: aa1-340 (from UniProt Q14680) | 1.02 |
| CLK3, construct: Full length (from UniProt P49761) | 0.938 |
| RPS6KA6, construct: Full length (from UniProt Q9UK32) | 1.37 |
| GRK5, construct: Full length (from UniProt P34947) | 0.976 |
| TTK, construct: Full length (from UniProt P33981) | 1.15 |
| PRPF4B, construct: aa519-end (from UniProt Q13523) | 1.4 |

same assay, conditions: G fixed; at -1

| Substance | relative phosphorylation |
| --- | --- |
| PAK3, construct: Full length (from UniProt O75914) | 0.716 |
| MASTL, construct: Full length (from UniProt Q96GX5) | 1.46 |
| MELK, construct: aa1-340 (from UniProt Q14680) | 0.711 |
| CLK3, construct: Full length (from UniProt P49761) | 1.03 |
| RPS6KA6, construct: Full length (from UniProt Q9UK32) | 1.1 |
| GRK5, construct: Full length (from UniProt P34947) | 0.694 |
| TTK, construct: Full length (from UniProt P33981) | 0.568 |
| PRPF4B, construct: aa519-end (from UniProt Q13523) | 0.744 |

same assay, conditions: G fixed; at -2

| Substance | relative phosphorylation |
| --- | --- |
| PAK3, construct: Full length (from UniProt O75914) | 0.449 |
| MASTL, construct: Full length (from UniProt Q96GX5) | 1.13 |
| MELK, construct: aa1-340 (from UniProt Q14680) | 0.78 |
| CLK3, construct: Full length (from UniProt P49761) | 1.35 |
| RPS6KA6, construct: Full length (from UniProt Q9UK32) | 0.812 |
| GRK5, construct: Full length (from UniProt P34947) | 0.932 |
| TTK, construct: Full length (from UniProt P33981) | 0.922 |
| PRPF4B, construct: aa519-end (from UniProt Q13523) | 1.3 |

same assay, conditions: G fixed; at -3

| Substance | relative phosphorylation |
| --- | --- |
| PAK3, construct: Full length (from UniProt O75914) | 0.825 |
| MASTL, construct: Full length (from UniProt Q96GX5) | 1.02 |
| MELK, construct: aa1-340 (from UniProt Q14680) | 0.707 |
| CLK3, construct: Full length (from UniProt P49761) | 0.853 |
| RPS6KA6, construct: Full length (from UniProt Q9UK32) | 0.527 |
| GRK5, construct: Full length (from UniProt P34947) | 1.02 |
